Experimental data: US20260207718A1, “METHODS FOR TREATING LATE ONSET POMPE DISEASE IN PEDIATRIC PATIENTS” (Amicus Therapeutics, Inc., priority 2022, published 2026)
Entries after “also recorded” stand apart in the source; their conditions may differ. Read-outs that look alike come from different tables or passages of the source. Marks after values point to notes of the source that are not given here.

What was measured:
Gaa KO mice = experiment: Single fiber analysis (LAMP1/LC3) of muscle fibers from Gaa KO mice; assay type: in vivo
Excerpt: FIG. 17 depicts co-immunofluorescent staining of LAMP1 (green) (see for example, “B”) and LC3 (red) (see, for example, “A”) in single fibers isolated from the white gastrocnemius of Gaa KO mice treated with a vehicle, alglucosidase alfa, or ATB200. “C” depicts clearance of autophagic debris and absence of enlarged lysosome. A minimum of 30 fibers were examined from each animal.
As a result, a significant portion of muscle fibers analyzed (36-60%) from ATB200-treated mice appeared normal or near-normal.

[1] = Case: pediatric atypical IOPD patient, PK of ATB200 and AT2221 after 1 year; assay type: in vivo, human
CIMPR [2] = molecular target: T1, CIMPR (Homo sapiens, UniProt P11717); experiment: CIMPR plate binding assay
Procedure: In addition to having a greater percentage of rhGAA that can bind to the CIMPR, it is important to understand the quality of that interaction. LUMIZYME® and ATB200 receptor binding was determined using a CIMPR plate binding assay. Briefly, CIMPR-coated plates were used to capture GAA. Varying concentrations of rhGAA were applied to the immobilized receptor and unbound rhGAA was washed off. The amount of remaining rhGAA was determined by GAA activity. […] For LUMIZYME®, there is on average only 10% of molecules having a bis-phosphorylated N-glycan. In contrast, on average every rhGAA molecule in ATB200 has at least one bis-phosphorylated N-glycan.
N-glycan analysis via MALDI-TOF mass spectrometry confirmed that on average each ATB200 molecule contains at least one natural bis-M6P N-glycan structure.

[3] = ATB200-04 trial: population PK exposure matching of adolescents to adults; assay type: in vivo, human; set-up: AUC0-24, Mean / AUC0-24, Median / AUC0-24, P5 / AUC0-24, P95 / AUC0-24, Geo Mean: unit not given beside the values; details: for AUC0-24, Geo Mean / AUC0-24, Mean / AUC0-24, Median / AUC0-24, P5 / AUC0-24, P95: predicted
Excerpt: The ATB200-04 trial seeks to evaluate the safety and tolerability of cipaglucosidase alfa/miglustat co-administration.
Subjects have scheduled PK assessments at Day 1, Week 26, and Week 52 for plasma total GAA protein and miglustat.
Population PK parameters include clearance (CL) and volume of distribution (V), estimated from total GAA protein concentrations and miglustat concentrations in plasma.
Methods for Exposure Matching. Pediatric PK data from both clinical trials and expanded access programs were used for exposure matching to adult PK data. […] The previous base population PK models from cipaglucosidase alfa-atga and miglustat were rerun with the updated dataset. To account for longitudinal changes in body size for pediatric patients, the time-varying body weight was used to estimate the effects of body size on PK parameters in the population PK models. The effect of age at baseline on clearance was also evaluated in the PK models. Individual AUC0-24 and Cmax of cipaglucosidase alfa and miglustat were predicted from the PK empirical Bayes estimates (EBEs). The time-varying body weight and baseline age in pediatrics were used in the exposure prediction. PK exposures (AUC0-24 and Cmax) were predicted for each PK visit during the study; Day 1-baseline, Week 26, and Week 52. Additionally, there were unscheduled PK visits for some subjects.
Results for Adolescent Subjects. […] The dose may have been adjusted at a later visit for exposure matching. It should be noted however, that in the early stage of the study, all subjects were started at 20 mg/kg to evaluate safety.

[4] = tested on: normal and Pompe fibroblast cell lines; experiment: Cellular uptake of rhGAA in fibroblasts; assay type: cell-based
Procedure: The relative cellular uptake of ATB200 and LUMIZYME® rhGAA were compared using normal and Pompe fibroblast cell lines. Comparisons involved 5-100 nM of ATB200 according to the disclosure with 10-500 nM conventional rhGAA product LUMIZYME®. After 16-hr incubation, external rhGAA was inactivated with TRIS base and cells were washed 3-times with PBS prior to harvest. Internalized GAA measured by 4MU-α-Glucoside hydrolysis and was graphed relative to total cellular protein and the results appear in FIGS. 11A-11C.
ATB200 was also shown to be efficiently internalized into cells. […] ATB200 saturates cellular receptors at about 20 nM, while about 250 nM of LUMIZYME® is needed to saturate cellular receptors.

[5] = Thermostability assay using SYPRO Orange; assay type: physicochemical
Procedure: The stability of ATB200 in acidic or neutral pH buffers was evaluated in a thermostability assay using SYPRO Orange, as the fluorescence of the dye increases when proteins denature. […] As summarized in Table 10, the addition of miglustat increased the melting temperature (Tm) of ATB200 by nearly 10° C.

CIMPR [6] = molecular target: T1, CIMPR; experiment: CIMPR affinity chromatography (bound vs unbound rhGAA by GAA activity); assay type: binding
Excerpt: Multiple batches of the rhGAA according to the disclosure were produced in shake flasks and in perfusion bioreactors using CHO cell line GA-ATB200, the product of which is referred to as “ATB200.” Weak anion exchange (“WAX”) liquid chromatography was used to fractionate ATB200 rhGAA according to terminal phosphate and sialic acid. Elution profiles were generated by eluting the ERT with increasing amount of salt. The profiles were monitored by UV (A280 nm).
To evaluate the ability of the conventional rhGAAs in MYOZYME® and LUMIZYME® to interact with the CIMPR, the two conventional rhGAA preparations were injected onto a CIMPR affinity column (which binds rhGAA having M6P groups) and the flow through collected. The bound material was eluted with a free M6 gradient. Fractions were collected in 96-well plate and GAA activity assayed by 4MU-α-glucosidase substrate. The relative amounts of unbound (flow through) and bound (M6P eluted) rhGAA were determined based on GAA activity and reported as the fraction of total enzyme. […] Indeed, only 27% of the rhGAA in MYOZYME® and 22% of the rhGAA in LUMIZYME® contained M6P that can be productive to target it to the CIMPR on muscle cells.

[7] = tested on: pediatric subjects with late-onset Pompe disease; experiment: ATB200-04 trial: safety in pediatric subjects with LOPD; assay type: in vivo, human; details: ERT-experienced subject, Cohort 2
Excerpt: This study includes subjects with Pompe disease except classic IOPD.
Safety assessments include monitoring of adverse events (AEs), clinical laboratory tests (chemistry, hematology, and urinalysis), physical examinations, vital signs, 12-lead electrocardiogram (ECGs), and detection of cipaglucosidase alfa antibodies.

[8] = adolescent Subject 2, 20 mg/kg, Week 52, 83.8 kg
[9] = adolescent Subject 3, 25 mg/kg, Week 52, 64.6 kg
[10] = adolescent Subject 4, 25 mg/kg, Week 64, 53.3 kg
[11] = adolescent Subject 5, 25 mg/kg, Week 52, 43.7 kg
[12] = adolescent Subject 6, 25 mg/kg, Week 52, 36.5 kg
[13] = adolescent Subject 7, 25 mg/kg, Week 52, 60.3 kg
[14] = adolescent Subject 8, 25 mg/kg, Week 72, 38.5 kg

T1 sequence (P11717 41-2491, species assumed): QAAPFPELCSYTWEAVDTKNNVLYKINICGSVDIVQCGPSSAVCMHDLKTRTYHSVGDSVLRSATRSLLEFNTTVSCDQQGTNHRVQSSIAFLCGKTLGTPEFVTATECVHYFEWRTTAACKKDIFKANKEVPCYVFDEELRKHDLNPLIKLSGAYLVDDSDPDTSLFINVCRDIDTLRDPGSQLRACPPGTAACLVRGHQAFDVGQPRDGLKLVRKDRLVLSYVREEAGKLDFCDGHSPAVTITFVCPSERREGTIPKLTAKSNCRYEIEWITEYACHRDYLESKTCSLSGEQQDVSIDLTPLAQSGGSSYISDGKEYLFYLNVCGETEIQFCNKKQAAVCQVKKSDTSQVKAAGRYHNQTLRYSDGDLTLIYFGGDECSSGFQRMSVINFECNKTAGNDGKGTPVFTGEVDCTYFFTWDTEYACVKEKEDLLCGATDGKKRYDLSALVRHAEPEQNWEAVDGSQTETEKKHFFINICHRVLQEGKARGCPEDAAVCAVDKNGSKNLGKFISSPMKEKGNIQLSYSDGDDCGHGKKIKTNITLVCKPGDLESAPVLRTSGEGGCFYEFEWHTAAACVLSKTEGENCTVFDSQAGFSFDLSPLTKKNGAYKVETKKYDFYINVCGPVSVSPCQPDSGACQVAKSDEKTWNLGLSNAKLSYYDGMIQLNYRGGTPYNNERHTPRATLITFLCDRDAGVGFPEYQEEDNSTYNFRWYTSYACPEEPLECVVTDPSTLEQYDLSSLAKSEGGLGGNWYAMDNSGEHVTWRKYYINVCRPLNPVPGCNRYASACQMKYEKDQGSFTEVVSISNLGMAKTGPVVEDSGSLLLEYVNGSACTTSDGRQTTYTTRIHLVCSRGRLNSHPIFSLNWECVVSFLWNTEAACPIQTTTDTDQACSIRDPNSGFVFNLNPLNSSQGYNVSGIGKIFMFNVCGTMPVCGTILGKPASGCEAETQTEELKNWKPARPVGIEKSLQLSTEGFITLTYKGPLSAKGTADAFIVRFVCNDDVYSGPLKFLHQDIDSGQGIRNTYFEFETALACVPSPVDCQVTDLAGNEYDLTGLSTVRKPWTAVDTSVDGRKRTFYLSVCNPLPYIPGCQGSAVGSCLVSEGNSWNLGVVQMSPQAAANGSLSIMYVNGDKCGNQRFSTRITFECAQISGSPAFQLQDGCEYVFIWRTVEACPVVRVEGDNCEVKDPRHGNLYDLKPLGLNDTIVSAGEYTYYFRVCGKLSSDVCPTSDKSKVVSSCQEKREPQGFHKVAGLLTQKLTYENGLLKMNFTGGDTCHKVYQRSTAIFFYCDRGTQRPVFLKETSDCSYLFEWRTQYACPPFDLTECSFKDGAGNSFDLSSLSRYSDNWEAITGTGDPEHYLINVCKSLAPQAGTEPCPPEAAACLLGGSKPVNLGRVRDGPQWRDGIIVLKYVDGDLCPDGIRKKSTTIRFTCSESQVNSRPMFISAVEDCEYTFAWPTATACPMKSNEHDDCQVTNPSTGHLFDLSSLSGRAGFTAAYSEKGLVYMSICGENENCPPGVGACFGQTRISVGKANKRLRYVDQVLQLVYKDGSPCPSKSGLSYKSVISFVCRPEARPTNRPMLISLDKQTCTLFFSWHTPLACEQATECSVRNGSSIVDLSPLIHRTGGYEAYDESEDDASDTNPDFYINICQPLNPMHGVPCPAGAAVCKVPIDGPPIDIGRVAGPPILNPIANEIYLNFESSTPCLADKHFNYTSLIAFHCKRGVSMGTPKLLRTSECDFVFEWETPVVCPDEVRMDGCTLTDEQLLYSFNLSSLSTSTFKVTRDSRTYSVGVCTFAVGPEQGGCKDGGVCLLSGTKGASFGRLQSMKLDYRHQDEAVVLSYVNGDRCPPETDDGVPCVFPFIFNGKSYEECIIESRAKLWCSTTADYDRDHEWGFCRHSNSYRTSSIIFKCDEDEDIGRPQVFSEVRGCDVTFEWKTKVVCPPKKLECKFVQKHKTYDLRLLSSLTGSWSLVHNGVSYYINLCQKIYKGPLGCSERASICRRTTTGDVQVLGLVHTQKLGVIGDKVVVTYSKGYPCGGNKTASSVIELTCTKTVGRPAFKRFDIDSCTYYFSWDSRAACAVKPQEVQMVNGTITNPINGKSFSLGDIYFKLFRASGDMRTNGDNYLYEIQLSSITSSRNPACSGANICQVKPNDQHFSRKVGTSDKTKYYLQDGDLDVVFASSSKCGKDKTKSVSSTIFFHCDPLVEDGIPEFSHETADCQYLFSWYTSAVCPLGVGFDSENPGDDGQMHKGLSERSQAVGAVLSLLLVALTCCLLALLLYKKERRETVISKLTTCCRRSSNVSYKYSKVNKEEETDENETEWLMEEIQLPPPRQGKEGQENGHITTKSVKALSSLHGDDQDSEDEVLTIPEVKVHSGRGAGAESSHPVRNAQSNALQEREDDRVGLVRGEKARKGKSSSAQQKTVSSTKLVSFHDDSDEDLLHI

## ATB200: recombinant human acid α-glucosidase with high content of N-glycans bearing mono-M6P and bis-M6P, produced from GA-ATB200 CHO cell line
Gaa KO mice
  Fibers with Autophagy Buildup: 40-64%*
  Fibers with Normal or Near-normal Appearance: 36-60%
Gaa KO mice; white gastrocnemius
  Lysosome Enlargement: dramatically decreased lysosome size; also recorded: Dramatic size
[1]; Adult (10th-90th percentile)
  ATB200 AUC: 1001 to 1924 µg·h/mL
  ATB200 Cmax: 223 to 363 µg/mL
[1]; Adult (median)
  ATB200 AUC: 1415 µg·h/mL
  ATB200 Cmax: 294 µg/mL
[1]; patient with atypical IOPD, 12Y5M, 46.5 kg, ATB200 20 mg/kg + AT2221 195 mg biweekly for 1 year
  ATB200 AUC: 1257 µg·h/mL
[1]; patient with atypical IOPD, 12Y5M, 20 mg/kg
  ATB200 Cmax: 245 µg/mL
CIMPR [2]; CIMPR plate binding assay, FIG. 10A
  binding to CIMPR compared with LUMIZYME®: bound to CIMPR significantly better than LUMIZYME®
CIMPR [2]; M6P receptor plate binding assays
  Kd: 2 to 4 nM
[3]; 90% CI (81.96, 96.88)
  AUC0-24, geometric LSM Ratio adolescents to adults: 89.11
[3]; 90% CI (82.51, 104.69)
  Cmax, geometric LSM Ratio adolescents to adults: 92.94
[3]; adolescent Subject 1, 20 mg/kg, Week 52, 77.9 kg
  individual predicted AUC0-24: 1396
[3]; [8]
  individual predicted AUC0-24: 1315
  individual predicted Cmax: 277
[3]; [9]
  individual predicted AUC0-24: 1318
  individual predicted Cmax: 305
[3]; [10]
  individual predicted AUC0-24: 1472
  individual predicted Cmax: 294
[3]; [11]
  individual predicted AUC0-24: 1175
  individual predicted Cmax: 240
[3]; [12]
  individual predicted AUC0-24: 1047
  individual predicted Cmax: 222
[3]; [13]
  individual predicted AUC0-24: 1269
  individual predicted Cmax: 273
[3]; [14]
  individual predicted AUC0-24: 1138
  individual predicted Cmax: 229
[3]; adults N=100, adolescents N=8
  predicted AUC0-24 and Cmax for adolescents relative to adult 5th and 95th percentile range: well within the adult 5th and 95th percentile range
[3]; Adolescents N=8
  AUC0-24, Geo Mean: 1259
  AUC0-24, Mean: 1266
  AUC0-24, Median: 1292
  AUC0-24, P5: 1079
  AUC0-24, P95: 1446
[3]; Adults N=100
  AUC0-24, Geo Mean: 1413
  AUC0-24, Mean: 1461
  AUC0-24, Median: 1433
  AUC0-24, P5: 898
  AUC0-24, P95: 2162
[4]; 16-hr incubation
  concentration that saturates cellular receptors: about 20 nM
[4]; 16-hr incubation, extrapolated, FIG. 11C
  uptake efficiency constant (Kuptake): 2-3 nm
[4]; FIGS. 11A-11B
  internalization into normal and Pompe fibroblast cells: internalized to a greater degree than the conventional rhGAA product LUMIZYME®
[5]; pH 5.2
  Tm: 67.3 °C
[5]; pH 7.4
  Tm: 56.2 °C
  increase of melting temperature (Tm) by addition of miglustat: ~10 °C
[5]; pH 7.4 + 10 μM miglustat
  Tm: 61.6 °C
[5]; pH 7.4 + 30 μM miglustat
  Tm: 62.9 °C
[5]; pH 7.4 + 100 μM miglustat
  Tm: 66.0 °C
CIMPR [6]
  rhGAA that bound to the CIMPR: more than 70%
CIMPR [6]; listed as ATB200 rhGAA
  rhGAA that bound to the CIMPR: ≥ 70%
[7]
  investigator-assessed relatedness of anaphylaxis event (both episodes): definitely related
